From patent US10772972B2, “Anti-STEAP2 antibody drug conjugates, and compositions and uses thereof” (Regeneron Pharmaceuticals, Inc., priority 2016, dated 2020)

Legend:
[1] = system: C4-2 cells (high-STEAP2 expressing); assay: Internalization and total binding on C4-2 cells (imaging, qualitative score); assay type: cell-based, human; set-up: key: − (no internalization or binding); +(weak internalization or binding); ++(moderate internalization or binding); +++(robust internalization or binding); conditions: 10 μg/ml antibody
Experimental: Briefly, 20,000 C4-2 cells were seeded in PDL coated 96 well plates. The next day, cells were incubated with anti-human STEAP2 antibodies (10 μg/ml) for 30 min on ice followed by two PBS washes. Cells were then incubated with alexa488-conjugated anti-hFc Fab secondary antibody for 30 minutes on ice, followed by two additional PBS washes. Antibodies were allowed to internalize for 1 h at 37° C. in internalization buffer (PBS+2% FBS) or were maintained at 4° C. Cells were fixed in 4% formaldehyde, nuclei were stained with DRAQ5 (Cell signaling), and images were acquired on the ImageXpress micro XL (Molecular Devices).
A qualitative visual assessment of the total binding intensity and the intensity of antibodies that had internalized into vesicles was performed and scored according to the following criteria: − (no internalization or binding), +(weak internalization or binding), ++(moderate internalization or binding) and +++(robust internalization or binding).

[2] = system: human prostate cancer C4-2 cells (xenograft); assay: C4-2/human PBMC co-implant xenograft in NSG mice, immediate dosing; assay type: in vivo, mouse; conditions: C4-2/NSG; for Tumor growth compared to isotype control at study endpoint (in words): 0.1 or 0.01 mg/kg
Description: To assess the in vivo efficacy of the anti-STEAP2/anti-CD3 bispecifics in human tumor xenograft studies, NOD scid gamma (NSG) mice (Jackson Laboratories, Bar Harbor, Me.) were co-implanted with human peripheral blood mononuclear cells (PBMCs; ReachBio LLC., Seattle, Wash.) along with human prostate cancer C4-2 cells (MD Anderson Cancer Center, Houston Tex.) which endogenously express STEAP2.
Briefly, 5.0×10^6 C4-2 cells were co-implanted subcutaneously (s.c.) with 1.25×10^6 human PBMCs in a 50:50 mix of matrigel matrix (BD Biosciences, San Jose, Calif.) into the right flank of male NSG mice. Mice were treated intraperitoneally (i.p.) on the day of implantation (immediate treatment model) with anti-STEAP2/anti-CD3 bispecifics BSSTEAP2/CD3-001, BSSTEAP2/CD3-002 or BSSTEAP2/CD3-003, or an isotype control, at a dose of 0.1 or 0.01 mg/kg (N=5 mice/group).
Tumor size was measured 2×/week using calipers and tumor volume calculated as Volume=(length×width^2)/2. Data is shown as tumor size (mm^3) at study endpoint, 46 d post-tumor implantation (Table 7).

cynomolgus T cells = assay: FACS binding titration of STEAP2xCD3 bispecifics on cynomolgus T cells; conditions: 66.6 nM to 0.001 nM, 30 minutes at 4° C.
Experimental: FACS Binding Titration on Jurkat Cells, PC3_STEAP2/1 Cells and cynomolgus T Cells: Flow cytometric analysis was utilized to determine binding of STEAP2×CD3 bispecific antibodies to Jurkat, PC3_STEAP2/1 chimeric and cynomolgus T cells, followed by detection with a phycoerythrin (PE)-labeled anti-human IgG antibody. Briefly, 2×10^5 cells/well were incubated for 30 minutes at 4° C. with a serial dilution of STEAP2×CD3 bispecific antibodies or control antibody (a human IgG1 antibody that binds a feline antigen with no cross-reactivity to STEAP2 or human or cynomolgus CD3) ranging from 66.6 nM to 0.001 nM. After incubation, the cells were washed twice with cold PBS containing 1% filtered FBS and a PE-conjugated anti-human secondary antibody was added to the cells and incubated for an additional 30 minutes. Wells containing no antibody or secondary antibody only were used as a control. After incubation, cells were washed, re-suspended in 200 μL cold PBS containing 1% filtered FBS and analyzed by flow cytometry on a BD FACS Canto II.

monkey PBMCs = assay: T cell proliferation assay, cynomolgus PBMC; assay type: cell-based; conditions: for Cynomolgus PBMC proliferation activity (in words): across donors tested
Experimental: Thawed human or freshly isolated monkey PBMCs (50,000 cells/well) were incubated with 3-fold (human, concentration range: 5E-10M to 2.82E-15M; cynomolgus, concentration range: 1E-09M to 4.57E-13M) serial dilutions of STEAP2×CD3 bispecifics or isotype control in complete medium (RPMI supplemented with 10% FBS, 100 U/mL penicillin, 100 μg/mL streptomycin, 292 μg/mL L-glutamine) and a fixed concentration (human: 200 ng/mL, cyno: 500 ng/mL) of a commercial anti-CD28 antibody (Biolegend, Catalog #302914) in white flat bottom 96-well plates for 72 hours at 37° C. Isolated monkey PBMCs were from two donors (identified as mk8781M or mk9381M). Following incubation, CellTiter Glo® (Promega, Cat #7573) was added and luminescence, as readout for cell viability, was measured using a VICTOR X5 multi-label plate reader. Cell titer was calculated by dividing the luminescence of stimulated cells by the baseline luminescence of unstimulated cells.

[3] = 0.01 mg/kg i.p. on day of implantation
[4] = 0.1 mg/kg i.p. on day of implantation

B1: H1H11880P: anti-STEAP2 antibody, HCVR/LCVR SEQ ID NOs 34/42 (antibody, V domains shown)
VH: EVQLVESGGGLVQPGGSLRLSCAASGFTFSTYAMHWVRQAPGKGLQHVSTISTNGVNTYYADSVKGRFTISRDNSKSTLYLQMGSLRAEDMAVYYCARDKDFWSGYFDYWGQGTLVTVSS
VL: EIVMTQSPGTLSVSPGERATLSCRASQSVSSNLAWYHQKPGQAPRLLIYGASTRATGFPARFSGSGSGTEFTLTISSLQSEDFAAYYCQQYNNWPITFGQGTRLEIK
B1 was tested, and the “Internalization (37° C., 1 h) Qualitative Score” value (“Internalization” for short) [1] was “+” and the “Total Binding (4° C.) Qualitative Score” value [1] was “+”.

B2: BSSTEAP2/CD3-002: STEAP2×CD3 bispecific: anti-STEAP2 HCVR H2M11162N (SEQ 250), anti-CD3 HCVR CD3-VH-G5 (SEQ 1762), common LCVR SEQ 258 (antibody, V domains shown)
VH 1: QVQLQQSGPGLVKPSQTLSLTCAISGDSVSSNRAAWNWIRQSPSRGLQWLGRTYYRSKWYNDYAVSLRSRITINPVTSKNQVALHMNSVTPEDTAVYYCARAGIVVVPGPETFYYYDHGLDVWGQGTTVTVSS
VH 2: EVQLVESGGGLVQPGRSLRLSCAASGFTFDDYSMHWVRQAPGKGLEWVSGISWNSGSIGYADSVKGRFTISRDNAKNSLYLQMNSLRAEDTALYYCAKDGSGYGKFYYYGMDVWGQGTTVTVSS
VL: DIQMTQSPSSLSASVGDRVTITCRASQSIRSYLNWYQQKPGKAPELLIHAASSLQSGVPSRFSGSGSGTDFTLTISSLQPEDFASYYCQQSYSAPPITFGQGTRLEIK
For B2, the “Tumor Size (mm^3) 46 d post-tumor implantation (mean ± SD)” value (shortened to “Tumor Size … (mean ± SD)”) [2, 3] was 17.0 ± 8.0 mm^3, the “Tumor Size … (mean ± SD)” value [2, 4] was 15.0 ± 12.0 mm^3 and the “Tumor growth compared to isotype control at study endpoint (in words)” value [2] was “significantly suppressed tumor growth”.

B3: H2M11164N: anti-STEAP2 antibody, mouse IgG2 Fc, HCVR/LCVR SEQ ID NOs 282/290 (antibody, V domains shown)
VH: QVQLQQSGPGLVKPSQTLSLTCVISGDSVSTNSAAWNWIRQSPSRGLEWLGRTYYRSKWYNDYAVSVRSRITINPVTSKNQVALHLNSVTPEDTAVYYCARAGIVVVPGPETYYYYYHGLDVWGQGTTVTVSS
VL: DIQMTQSPSSLSASVGDRVTITCRASQNIRSYLNWYQQKPGKAPKLLIHVASSLQSGVPSRFSGSGSGTDFTLTISSLQPEDFATYYCQQSYSTPPITFGHGTRLEIK
modifications: mouse IgG2 Fc
For B3, the “Internalization” value [1] was “+++” and the “Total Binding (4° C.) Qualitative Score” value [1] was “+++”.

B4: BSSTEAP2/CD3-006: STEAP2×CD3 bispecific: anti-STEAP2 H1H11162 (SEQ 250), anti-CD3 CD3-VH-P (SEQ 1882), common LCVR SEQ 258 (antibody, V domains shown)
VH 1: QVQLQQSGPGLVKPSQTLSLTCAISGDSVSSNRAAWNWIRQSPSRGLQWLGRTYYRSKWYNDYAVSLRSRITINPVTSKNQVALHMNSVTPEDTAVYYCARAGIVVVPGPETFYYYDHGLDVWGQGTTVTVSS
VH 2: EVQLVESGGGLVQPGRSLRLSCVASGFTFDDYSMHWVRQAPGKGLEWVSGISWNSGSKDYADSVKGRFTISRDNAKNSLYLQMNSLRAEDTALYYCAKYGSGYGKFYHYGLDVWGQGTTVTVSS
VL: DIQMTQSPSSLSASVGDRVTITCRASQSIRSYLNWYQQKPGKAPELLIHAASSLQSGVPSRFSGSGSGTDFTLTISSLQPEDFASYYCQQSYSAPPITFGQGTRLEIK
B4 was tested, and the EC50 (cynomolgus T cells) was 7.99 nM, the “Cynomolgus PBMC proliferation activity (in words)” value (monkey PBMCs) was “induced robust cynomolgus PBMC proliferation in all donors tested” and the EC50 (monkey PBMCs; donor mk9381M, anti-CD28 500 ng/mL, 72 hours, read-out: Cyno PBMC Proliferation [M] (donor)) was 1.53e-11 M.

B5: H2M11162N: anti-STEAP2 antibody, mouse IgG2 Fc, HCVR/LCVR SEQ ID NOs 250/258 (antibody, V domains shown)
VH: QVQLQQSGPGLVKPSQTLSLTCAISGDSVSSNRAAWNWIRQSPSRGLQWLGRTYYRSKWYNDYAVSLRSRITINPVTSKNQVALHMNSVTPEDTAVYYCARAGIVVVPGPETFYYYDHGLDVWGQGTTVTVSS
VL: DIQMTQSPSSLSASVGDRVTITCRASQSIRSYLNWYQQKPGKAPELLIHAASSLQSGVPSRFSGSGSGTDFTLTISSLQPEDFASYYCQQSYSAPPITFGQGTRLEIK
modifications: mouse IgG2 Fc
In the case of B5, the “Internalization” value [1] is reported as “+++” and the “Total Binding (4° C.) Qualitative Score” value [1] is reported as “+++”.

B6: BSSTEAP2/CD3-003: STEAP2×CD3 bispecific: anti-STEAP2 HCVR H2M11162N (SEQ 250), anti-CD3 HCVR CD3-VH-G20 (SEQ 1866), common LCVR SEQ 258 (antibody, V domains shown)
VH 1: QVQLQQSGPGLVKPSQTLSLTCAISGDSVSSNRAAWNWIRQSPSRGLQWLGRTYYRSKWYNDYAVSLRSRITINPVTSKNQVALHMNSVTPEDTAVYYCARAGIVVVPGPETFYYYDHGLDVWGQGTTVTVSS
VH 2: EVQLVESGGGLVQPGRSLRLSCAASGFTFDDYSMHWVRQAPGKGLEWVSGISWNSGSIGYADSVKGRFTISRDNAKNSLYLQMNSLRAEDTALYYCAKYGSGYGKFYYYGMDVWGQGTTVTVSS
VL: DIQMTQSPSSLSASVGDRVTITCRASQSIRSYLNWYQQKPGKAPELLIHAASSLQSGVPSRFSGSGSGTDFTLTISSLQPEDFASYYCQQSYSAPPITFGQGTRLEIK
For B6, the “Tumor Size … (mean ± SD)” value [2, 3] was 25.0 ± 21.0 mm^3, the “Tumor Size … (mean ± SD)” value [2, 4] was 19.0 ± 12.0 mm^3 and the “Tumor growth compared to isotype control at study endpoint (in words)” value [2] was “significantly suppressed tumor growth”.

B7: BSSTEAP2/CD3-004: STEAP2×CD3 bispecific: anti-STEAP2 H1H7814N (SEQ 218), anti-CD3 H1H7251P (SEQ 1570), common LCVR SEQ 226 (antibody, V domains shown)
VH 1: QVQLVESGGGVVQPGRSLRLSCVASGFTISSYGMNWVRQAPGKGLEWVAVISYDGGNKYSVDSVKGRFTISRDNSKNTLYLQMNSLRAEDSAVYYCARGRYFDLWGRGTLVTVSS
VH 2: EVQLVESGGGLVQPGRSLRLSCAASGFTFADYTMHWVRQGPGTGLEWVSDIGWSGGSLGYADSVKGRFTISRDNAKNSLYLEMNNLRPEDTALYYCVKDKSGYGKFQYGLDVWGQGTTVTVSS
VL: DIQMTQSPSTLSASVGDRVTITCRASQSISSWLAWYQQKPGRAPNLLISKASSLKSGVPSRFSGSGSGTEFTLTVSSLQPDDFATYYCQQYYSYSYTFGQGTKLEIK
B7 was tested, and the EC50 (cynomolgus T cells) was 1.99 nM and the “Cynomolgus PBMC proliferation activity (in words)” value (monkey PBMCs) was “donor dependent”.

B8: H1H7814N: human-Fc anti-STEAP2 antibody, HCVR/LCVR SEQ ID NOs 218/226 (antibody, V domains shown)
VH: QVQLVESGGGVVQPGRSLRLSCVASGFTISSYGMNWVRQAPGKGLEWVAVISYDGGNKYSVDSVKGRFTISRDNSKNTLYLQMNSLRAEDSAVYYCARGRYFDLWGRGTLVTVSS
VL: DIQMTQSPSTLSASVGDRVTITCRASQSISSWLAWYQQKPGRAPNLLISKASSLKSGVPSRFSGSGSGTEFTLTVSSLQPDDFATYYCQQYYSYSYTFGQGTKLEIK
modifications: human Fc
B8 was tested, and the “Internalization” value [1] was “+” and the “Total Binding (4° C.) Qualitative Score” value [1] was “+”.
